From patent publication US12115264B2, “Sterilization and filtration of peptide compositions” (3-D Matrix, Ltd., priority 2014, dated 2024)
Where no end group is shown, it is not given here.

What was measured:
Assay type in all cases: physicochemical
[1] = Time sweep tests (rheological strength) before and after autoclave treatment; settings: time sweep test
Method: Rheological properties of certain peptide compositions were determined before and after autoclaving.

[2] = Rheological properties of peptide solutions at selected concentrations; settings: for Loss Modulus (G″) / Storage Modulus (G′): at 1 Pa of oscillation stress; for Max. Viscosity (max η′): from viscosity plots at the range of measured stress
Method: Rheological properties were determined for a variety of peptide solutions. […] For example 2% KLD12 (SEQ ID NO:2), 2.5% KLD12 (SEQ ID NO:2), and 1.5% IEIK13 (SEQ ID NO:3) solutions have 2, 3.4, and 3.2 times higher maximum viscosities than 2.5% RADA16 (SEQ ID NO:1), respectively.

[3] = Shear flow test (rheometer DHR-1, 20 mm plates); settings: for yield stress (shear flow test): shear rate 0.003 to 1000
Method: Shear flow tests were performed on peptide solutions using a rheometer (DHR-1, TA Instruments) with 20 mm plates. Results are shown in FIG. 9 for 2.5% RADA16 (SEQ ID NO:1) solutions and FIG. 10 for 1.5% IEIK13 (SEQ ID NO:3) solutions. […] That is, as shear rate increased, their viscosities were dramatically dropped. […] The yield stress was about 40 Pa for 2.5% RADA16 (SEQ ID NO:1) solution and about 60 Pa for 1.5% IEIK13 (SEQ ID NO:3) solution.

[4] = Storage modulus recovery after injection through 30-gauge needle
Method: RADA16 (SEQ ID NO:1) was injected through 30-gauge needle so that applied shear stress reduced stiffness of the peptides. The measurements were started 1 minute after the injection.
KLD12 (SEQ ID NO:2) was injected through 30-gauge needle so that the applied shear stress reduced stiffness of the peptides. The measurements were started 1 minute after the injection.
IEIK13 (SEQ ID NO:3) was injected through 30-gauge needle so that the applied shear stress reduced stiffness of the peptides. The measurements were started 1 minute after the injection.
The percentages of recovery back to the original storage modulus at 1 min and 20 min after injection peptide compositions through a 30 gauge needle are listed in Table 2. The recovery rate of IEIK13 (specifically, of a […]; SEQ ID NO:3) was the fastest among the peptide solutions, showing 100% recovery to the original storage modulus in 20 min. […] In some non-limiting embodiments, it may take about 12 to 48 hours for full recovery to an original modulus after passage through a needle (e.g., injection).
Rheological measurements were performed for RADA16 (SEQ ID NO:1) and IEIK13 (SEQ ID NO:3) solutions after injecting them through 30 gauge needles. […] The results are shown in FIG. 6 for RADA16 (SEQ ID NO:1), FIG. 7 for KLD12 (SEQ ID NO:2), and FIG. 8 for IEIK13 (SEQ ID NO:3).

[5] = Apparent viscosity change after passage through membrane shear-thinning unit (container-inversion test)
Text: The top row includes pictures of 2.5% KLD12 (SEQ ID NO:2). The bottom row includes pictures of 1.5% IEIK13 (SEQ ID NO:3). The solutions in the most left column stay on the top of the vials. The solutions in the most right column (after applying shear stress) have low viscosity, so that most materials are located at the bottom of vials.
To examine the effect of pore size in the shear-thinning unit on viscosity change of viscous peptide solutions, 2.5% KLD12 (SEQ ID NO:2) and 1.5% IEIK13 (SEQ ID NO:3) solutions were passed through selected pore sizes, and their apparent viscosity changes were evaluated. 2.5% KLD12 (SEQ ID NO:2) solutions passed through the shear-thinning unit with the pore sizes of 41 μm, 20 μm, and 5 μm.

[6] = 1%, 1 min after injection through 30-gauge needle
[7] = 1%, 20 min after injection through 30-gauge needle
[8] = 2.5%, 1 min after injection through 30-gauge needle
[9] = 2.5%, 20 min after injection through 30-gauge needle

Arg-Ala-Asp-Ala-Arg-Ala-Asp-Ala-Arg-Ala-Asp-Ala-Arg-Ala-Asp-Ala [RADA16]
rheological strength after autoclaving versus non-autoclaved [1]: dramatic decrease of rheological strength
Yield Stress ([2]; Conc. 1%): 15.9 Pa
Loss Modulus (G″) ([2]; Conc. 1%): 12 Pa
Storage Modulus (G′) ([2]; Conc. 1%): 74 Pa
Max. Viscosity (max η′) ([2]; Conc. 1%): 2.3 Pa · s
Yield Stress ([2]; Conc. 1.5%): 20.0 Pa
Loss Modulus (G″) ([2]; Conc. 1.5%): 30 Pa
Storage Modulus (G′) ([2]; Conc. 1.5%): 158 Pa
Max. Viscosity (max η′) ([2]; Conc. 1.5%): 3.4 Pa · s
Yield Stress ([2]; Conc. 2%): 31.6 Pa
Loss Modulus (G″) ([2]; Conc. 2%): 39 Pa
Storage Modulus (G′) ([2]; Conc. 2%): 217 Pa
Max. Viscosity (max η′) ([2]; Conc. 2%): 4.0 Pa · s
Yield Stress ([2]; Conc. 2.5%): 50.1 Pa
Loss Modulus (G″) ([2]; Conc. 2.5%): 53 Pa
Storage Modulus (G′) ([2]; Conc. 2.5%): 352 Pa
Max. Viscosity (max η′) ([2]; Conc. 2.5%): 5.6 Pa · s
flow behaviour with increasing shear rate ([3]; 2.5% solution): typical shear thinning properties
yield stress (shear flow test) ([3]; 2.5% solution): about 40 Pa
Storage modulus [4, 6]: 6.8 Pa
Storage modulus [4, 7]: 40 Pa
Storage modulus ([4]; 1%, Before injection): 74 Pa
Storage modulus [4, 8]: 67 Pa
Storage modulus [4, 9]: 196 Pa
Storage modulus ([4]; 2.5%, Before injection): 352 Pa

KLDLKLDLKLDL [KLD12, self-assembling peptide with repeats of KLDL, tested as solutions of 1 to 2.5%]
times higher maximum viscosity than 2.5% RADA16 ([2]; 2% solution): 2 times
times higher maximum viscosity than 2.5% RADA16 ([2]; 2.5% solution): 3.4 times
Yield Stress ([2]; Conc. 1%): 25.1 Pa
Loss Modulus (G″) ([2]; Conc. 1%): 25 Pa
Storage Modulus (G′) ([2]; Conc. 1%): 140 Pa
Max. Viscosity (max η′) ([2]; Conc. 1%): 2.0 Pa · s
Yield Stress ([2]; Conc. 1.5%): 39.8 Pa
Loss Modulus (G″) ([2]; Conc. 1.5%): 46 Pa
Storage Modulus (G′) ([2]; Conc. 1.5%): 292 Pa
Max. Viscosity (max η′) ([2]; Conc. 1.5%): 7.1 Pa · s
Yield Stress ([2]; Conc. 2%): 79.4 Pa
Loss Modulus (G″) ([2]; Conc. 2%): 63 Pa
Storage Modulus (G′) ([2]; Conc. 2%): 573 Pa
Max. Viscosity (max η′) ([2]; Conc. 2%): 11.0 Pa · s
Yield Stress ([2]; Conc. 2.5%): 100 Pa
Loss Modulus (G″) ([2]; Conc. 2.5%): 93 Pa
Storage Modulus (G′) ([2]; Conc. 2.5%): 846 Pa
Max. Viscosity (max η′) ([2]; Conc. 2.5%): 19.0 Pa · s
Storage modulus [4, 6]: 0.68 Pa
Storage modulus [4, 7]: 59 Pa
Storage modulus ([4]; 1%, Before injection): 140 Pa
Storage modulus [4, 8]: 57 Pa
Storage modulus [4, 9]: 196 Pa
Storage modulus ([4]; 2.5%, Before injection): 846 Pa
apparent viscosity change after shear-thinning unit ([5]; 2.5% solution, pore size of 120 μm): remained too viscous to flow down
apparent viscosity change after shear-thinning unit ([5]; 2.5% solution, pore sizes of 41 μm, 20 μm, and 5 μm): decreased enough to flow down

Ile-Glu-Ile-Lys-Ile-Glu-Ile-Lys-Ile-Glu-Ile-Lys-Ile [IEIK13]
rheological strength after autoclaving versus non-autoclaved [1]: almost identical rheological strength
times higher maximum viscosity than 2.5% RADA16 ([2]; 1.5% solution): 3.2 times
Yield Stress ([2]; Conc. 1%): 39.8 Pa
Loss Modulus (G″) ([2]; Conc. 1%): 77 Pa
Storage Modulus (G′) ([2]; Conc. 1%): 719 Pa
Max. Viscosity (max η′) ([2]; Conc. 1%): 12.9 Pa · s
Yield Stress ([2]; Conc. 1.5%): 50.1 Pa
Loss Modulus (G″) ([2]; Conc. 1.5%): 94 Pa
Storage Modulus (G′) ([2]; Conc. 1.5%): 1092 Pa
Max. Viscosity (max η′) ([2]; Conc. 1.5%): 18.0 Pa · s
Loss Modulus (G″) ([2]; Conc. 2%): 138 Pa
Storage Modulus (G′) ([2]; Conc. 2%): 1708 Pa
Yield Stress ([2]; Conc. 2.5%): 100 Pa
Loss Modulus (G″) ([2]; Conc. 2.5%): 174 Pa
Storage Modulus (G′) ([2]; Conc. 2.5%): 2213 Pa
Max. Viscosity (max η′) ([2]; Conc. 2.5%): 40.2 Pa · s
flow behaviour with increasing shear rate ([3]; 1.5% solution): typical shear thinning properties
yield stress (shear flow test) ([3]; 1.5% solution): about 60 Pa
Storage modulus [4, 8]: 632 Pa
Storage modulus [4, 9]: 2248 Pa
Storage modulus ([4]; 2.5%, Before injection): 2213 Pa
apparent viscosity change after shear-thinning unit ([5]; 1.5% solution, membrane with a pore size of 5 μm): reduced significantly
